These results are taken from patent publication US20060251625A1 (published 2006).

For series [1], the target named is T1, Receptor Interacting Protein RIP (UniProt Q13546 1-671, limits assumed).
T1 sequence (looked up): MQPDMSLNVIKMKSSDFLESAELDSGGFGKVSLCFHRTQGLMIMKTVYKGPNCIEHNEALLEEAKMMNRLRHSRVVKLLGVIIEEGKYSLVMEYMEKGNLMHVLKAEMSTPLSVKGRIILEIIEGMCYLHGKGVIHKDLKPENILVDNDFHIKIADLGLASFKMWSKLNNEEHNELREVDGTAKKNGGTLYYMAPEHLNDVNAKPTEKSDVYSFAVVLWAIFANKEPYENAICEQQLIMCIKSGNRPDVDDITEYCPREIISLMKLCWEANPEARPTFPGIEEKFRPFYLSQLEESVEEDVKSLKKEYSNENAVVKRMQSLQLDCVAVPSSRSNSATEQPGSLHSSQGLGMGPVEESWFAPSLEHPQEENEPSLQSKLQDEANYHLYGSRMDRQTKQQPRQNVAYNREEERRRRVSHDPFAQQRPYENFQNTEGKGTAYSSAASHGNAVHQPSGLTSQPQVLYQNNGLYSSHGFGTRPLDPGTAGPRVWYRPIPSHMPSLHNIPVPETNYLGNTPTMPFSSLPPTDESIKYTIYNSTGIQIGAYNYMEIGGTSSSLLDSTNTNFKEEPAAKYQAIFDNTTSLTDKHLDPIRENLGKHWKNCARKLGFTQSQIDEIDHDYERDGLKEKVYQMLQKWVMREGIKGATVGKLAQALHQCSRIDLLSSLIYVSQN
In words: not described (data not shown).

Series [2] addresses T2, TNF Receptor Associated Factor 2 TRAF2 (UniProt Q12933 1-501, limits assumed).
T2 sequence (looked up): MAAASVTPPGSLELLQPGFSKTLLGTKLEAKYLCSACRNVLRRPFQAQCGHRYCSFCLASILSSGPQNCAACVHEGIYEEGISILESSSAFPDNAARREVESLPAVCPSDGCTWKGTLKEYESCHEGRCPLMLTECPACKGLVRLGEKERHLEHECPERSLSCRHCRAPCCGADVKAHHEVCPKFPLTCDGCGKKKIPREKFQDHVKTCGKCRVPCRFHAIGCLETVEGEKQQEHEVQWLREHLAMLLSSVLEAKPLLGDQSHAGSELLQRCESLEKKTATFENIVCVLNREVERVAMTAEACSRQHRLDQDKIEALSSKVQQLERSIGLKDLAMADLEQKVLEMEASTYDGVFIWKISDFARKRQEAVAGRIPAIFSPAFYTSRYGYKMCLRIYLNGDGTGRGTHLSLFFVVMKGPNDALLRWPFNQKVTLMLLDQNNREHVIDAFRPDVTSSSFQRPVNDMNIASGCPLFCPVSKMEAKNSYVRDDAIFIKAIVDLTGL
The series is described as follows: not described (data not shown).

For series [3], the target named is T3, IKK-γ subunit (endogenous, 293T cells) (human, UniProt Q9Y6K9 1-419).
T3 construct: also called endogenous IKK-γ
T3 sequence (Q9Y6K9 whole entry): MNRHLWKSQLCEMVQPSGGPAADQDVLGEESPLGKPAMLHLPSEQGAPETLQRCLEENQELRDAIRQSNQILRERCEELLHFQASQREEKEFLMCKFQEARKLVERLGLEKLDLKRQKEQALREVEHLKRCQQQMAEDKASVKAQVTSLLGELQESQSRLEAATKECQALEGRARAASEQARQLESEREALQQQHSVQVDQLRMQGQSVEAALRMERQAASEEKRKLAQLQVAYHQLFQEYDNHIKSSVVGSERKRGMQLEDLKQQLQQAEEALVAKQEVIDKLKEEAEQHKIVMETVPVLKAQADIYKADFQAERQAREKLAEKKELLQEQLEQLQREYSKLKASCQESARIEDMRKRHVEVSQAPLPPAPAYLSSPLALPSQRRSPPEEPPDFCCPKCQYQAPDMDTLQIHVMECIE
The series is described as follows: co-immunoprecipitation with anti-IKK-γ from 293T lysates, immunoblot (FIG. 7C). (In western blotting, separated proteins are transferred to a membrane and probed.)

For series [4], the target named is T4, IKK2 (HA epitope-tagged, expressed from pHA-IKK2), O14920.
T4 chain: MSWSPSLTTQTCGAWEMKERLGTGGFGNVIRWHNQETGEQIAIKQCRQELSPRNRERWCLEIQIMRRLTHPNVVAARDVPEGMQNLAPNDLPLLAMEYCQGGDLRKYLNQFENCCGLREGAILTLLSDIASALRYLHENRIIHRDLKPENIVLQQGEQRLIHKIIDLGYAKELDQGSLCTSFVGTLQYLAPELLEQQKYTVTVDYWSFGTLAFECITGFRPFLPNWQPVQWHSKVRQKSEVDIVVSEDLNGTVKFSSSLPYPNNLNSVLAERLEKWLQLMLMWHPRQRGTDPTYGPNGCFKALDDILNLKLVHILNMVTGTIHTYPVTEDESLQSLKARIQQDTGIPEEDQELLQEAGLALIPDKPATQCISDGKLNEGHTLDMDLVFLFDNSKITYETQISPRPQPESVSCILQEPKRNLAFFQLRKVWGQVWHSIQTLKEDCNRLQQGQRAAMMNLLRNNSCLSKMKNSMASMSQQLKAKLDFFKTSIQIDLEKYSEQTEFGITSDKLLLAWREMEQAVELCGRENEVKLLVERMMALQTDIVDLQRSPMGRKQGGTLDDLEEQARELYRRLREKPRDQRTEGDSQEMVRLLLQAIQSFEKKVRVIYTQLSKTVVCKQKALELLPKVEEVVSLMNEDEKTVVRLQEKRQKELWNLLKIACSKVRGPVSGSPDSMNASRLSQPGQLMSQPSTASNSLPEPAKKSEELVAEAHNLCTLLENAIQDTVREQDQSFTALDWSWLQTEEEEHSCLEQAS

B1: Molluscum contagiosum virus (MCV) MC160 protein (other)
chain: MAHEPIPFSFLRNLLAELDASEHEVLRFLCRDVAPASKTAEDALRALQRRRLLTLSSMAELLCALRRFDVLKVRFGMTRECAGRLLGHGFLSQYRLQVAAINNMVGSEDLRVMCLCAGKLLPPSCTPRCLVDLVSALEDAGAISPQDVSVLVTLLHAVCRYDLSVALSAVAHGHMTVGVGTPVQDEPMDVLEVDDAEPMEATPACDEIGVVKLAGAASAGAPLADGAFAACTSAGKGEDLATSDLTDSEPEDSVFAVADPVYADVDLSMFVRANATADSSMFVNADAGADSSLVNADAGADSSLVNADAGADSSLVNAVADANSSLMRTTSACTDSEPEDSAGPSCAGMALSMFGRAKSVSSLLLRTKASY
notes: also called wild type MC160
For the molecule B1, the binding result in series [1], in series [2] and in series [3] was “no binding” in each case.

B2: IKK1 (FLAG epitope-tagged, expressed from pFLAG-IKK1) (protein)
chain: MERPPGLRPGAGGPWEMRERLGTGGFGNVCLYQHRELDLKIAIKSCRLELSTKNRERWCHEIQIMKKLNHANVVKACDVPEELNILIHDVPLLAMEYCSGGDLRKLLNKPENCCGLKESQILSLLSDIGSGIRYLHENKIIHRDLKPENIVLQDVGGKIIHKIIDLGYAKDVDQGSLCTSFVGTLQYLAPELFENKPYTATVDYWSFGTMVFECIAGYRPFLHHLQPFTWHEKIKKKDPKCIFACEEMSGEVRFSSHLPQPNSLCSLVVEPMENWLQLMLNWDPQQRGGPVDLTLKQPRCFVLMDHILNLKIVHILNMTSAKIISFLLPPDESLHSLQSRIERETGINTGSQELLSETGISLDPRKPASQCVLDGVRGCDSYMVYLFDKSKTVYEGPFASRSLSDCVNYIVQDSKIQLPIIQLRKVWAEAVHYVSGLKEDYSRLFQGQRAAMLSLLRYNANLTKMKNTLISASQQLKAKLEFFHKSIQLDLERYSEQMTYGISSEKMLKAWKEMEEKAIHYAEVGVIGYLEDQIMSLHAEIMELQKSPYGRRQGDLMESLEQRAIDLYKQLKHRPSDHSYSDSTEMVKIIVHTVQSQDRVLKELFGHLSKLLGCKQKIIDLLPKVEVALSNIKEADNTVMFMQGKRQKEIWHLLKIACTQSSARSLVGSSLEGAVTPQTSAWLPPTSAEHDHSLSCVVTPQDGETSAQMIEENLNCLGHLSTIIHEANEEQGNSMMNLDWSWLTE
As for B2, the “phosphorylation of recombinant IκBα in an in vitro kinase assay of anti-IKK1 immunoprecipitates” value in series [4] was “a phosphorylated form of recombinant IκBα was easily detected”.
